{
  "source": "ChEMBL document CHEMBL1127724",
  "about": "“Design and synthesis of 6-fluoropurine acyclonucleosides : potential prodrugs of acyclovir and ganciclovir” (Bioorg Med Chem Lett, 1994)",
  "proteins": {"B1": {"name": "Adenosine deaminase (Bos taurus), P56658 (protein)", "chain": "MAQTPAFNKPKVELHVHLDGAIKPETILYYGRKRGIALPADTPEELQNIIGMDKPLSLPEFLAKFDYYMPAIAGCREAVKRIAYEFVEMKAKDGVVYVEVRYSPHLLANSKVEPIPWNQAEGDLTPDEVVSLVNQGLQEGERDFGVKVRSILCCMRHQPSWSSEVVELCKKYREQTVVAIDLAGDETIEGSSLFPGHVKAYAEAVKSGVHRTVHAGEVGSANVVKEAVDTLKTERLGHGYHTLEDATLYNRLRQENMHFEVCPWSSYLTGAWKPDTEHPVVRFKNDQVNYSLNTDDPLIFKSTLDTDYQMTKNEMGFTEEEFKRLNINAAKSSFLPEDEKKELLDLLYKAYGMPSPASAEQCL"}},
  "key": {"[1]": {"substrate": "Nc1ncnc2c1ncn2[C@@H]1O[C@H](CO)[C@@H](O)[C@H]1O", "test": "Vmax for Calf intestinal mucosa adenosine deaminase was determined"}, "[2]": {"substrate": "Nc1ncnc2c1ncn2[C@@H]1O[C@H](CO)[C@@H](O)[C@H]1O", "test": "Michaelis-Menten constant for Calf intestinal mucosa adenosine deaminase was determined"}},
  "data": [
    {"protein": "B1", "values": [
      {"measurement": "Vmax (uM min-1 unit-1)", "setting": "[1]", "result": 0.76},
      {"measurement": "Km", "setting": "[2]", "result": 50.5, "unit": "µM"}
    ]}
  ]
}
